In the experiment the target is B7 protein on the antigen presenting cell (Daudi B cells). As to the kind of experiment: cell-based or functional assay.

Where “and” joins values, the source holds several entries; their conditions need not be identical. Identical values can stand only once.

For the substance CTLA4^A29YL104E-Ig (Fc fusion), the EC50 (ng/mL), human IL-2 promoter mediated luciferase activity was 19.1 ng/mL and 21.5 ng/mL and 21.8 ng/mL; the Lower Asymptote (CPS), human IL-2 promoter mediated luciferase activity is 27000 CPS and 30000 CPS and 29000 CPS; the Upper Asymptote (CPS), human IL-2 promoter mediated luciferase activity is 81000 CPS and 85000 CPS and 88000 CPS.

(Values after patent US20090252749A1.)
